# B1: LINE1-mini (parent)
# chain: GGCAGAGCUCAACACAGCGUGGCAAAGUGGCUGUGGCUAGACUGCC
# Variants of: B1
# Experiment: self-cleavage, relative activity (ratio to wild type); higher = more cleavage; in vitro, sequencing; the parent is a self-cleaving ribozyme
row,Variant,self-cleavage
1,A24U A25U,1.48
2,G35U,0.16
3,U9A U28G,0.15
4,C3G C46U,0.17
5,A6G C13A,0.19
6,G30U C31G,0.06
7,G29A C31A,0.43
8,C31G G44C,0.05
9,C18U G19C,0.56
10,C10G C37G,0.01
11,G5A U34G,0.04
12,G36A U43C,0.31
13,G17U C31U,0.11
14,A6C G36A,0.31
15,G5U C13U,0.11
16,U9C U38A,0.03
17,G30U G36C,0.11
18,A26C G29C,0.37
19,A24G U38C,0.71
20,C8U G36U,0.2
21,C37U A39C,0.14
22,G17C A39U,0.29
23,C10U G21U,0.33
24,A11G U28G,0.02

row,Variant,self-cleavage
1,G30A G44U,0.18
2,C13G G17U,0.06
3,U38C U43G,0.07
4,G5U G33C,0.06
5,A14C G33C,0.03
6,G21C G40C,0.07
7,U9A U28A,0.17
8,A4G G44C,0.08
9,A11U A14U,0.08
10,G5U C18G,0.06
11,A25C A26C,1.13
12,A14G C18U,0.42
13,C10A U32G,0.03
14,G2A A6C,0.33
15,A24U U32C,0.2
16,A24C A25G,0.89
17,C8A A39G,0.08
18,A25C A39G,0.07
19,C13U C31U,0.12
20,G19A C23G,0.41
21,G1C A16U,0.02
22,U9G C42U,0.05
23,A39G C46G,0.08
24,G19A G27U,0.93

row,Variant,self-cleavage
1,U28G A39C,0.05
2,U28A G30U,0.77
3,G17U G35C,0.18
4,G2U A26G,0.13
5,A14C G36C,0.02
6,G5C G7C,0.08
7,A26G G29C,0.89
8,G21U U38C,0.9
9,A26G G30C,1.27
10,G1U G44C,0.14
11,G29A C37U,0.05
12,C13G C46A,0.28
13,G5A C15G,0.05
14,G2A G40U,0.29
15,C3G C8U,0.39
16,G22U G30U,1.03
17,G30A C37A,0.05
18,C18U C23A,1.27
19,C10A,0.07
20,G2C C42G,0.03
21,U38A C42G,0.07
22,C18U C23G,1.56
23,A12G C37U,0.04
24,G5A C45U,0.12

row,Variant,self-cleavage
1,G21U,1.06
2,C3U A25G,0.27
3,G2C C42A,0.08
4,A16G A26C,0.84
5,C10U C42U,0.1
6,C18A C23U,1.29
7,G17A C45A,0.13
8,G22U U34G,0.26
9,C10A C42G,0.16
10,A12U G30A,0.48
11,U9C U32A,0.02
12,A14U U28A,0.14
13,C15U U38C,0.27
14,A4U A26C,0.14
15,A25C G36U,0.11
16,G1A A25C,1.36
17,C8U U32C,0.12
18,C10A U28C,0.07
19,C13G G27U,0.26
20,C18G G44A,0.07
21,A24U C31U,0.25
22,G33U C45G,0.07
23,G1C G22A,0.12
24,G5C A39U,0.06

row,Variant,self-cleavage
1,A11U C42A,0.03
2,A4U U20A,0.12
3,A24C U34C,0.12
4,U9C C45G,0.02
5,U38A A39G,0.25
6,C10A U38C,0.16
7,C23G C31U,0.2
8,C18U A25U,0.7
9,G27A G30A,2.28
10,C8A U9A,0.24
11,C31G A39C,0.12
12,G27U U38G,0.03
13,G35A A39U,0.12
14,G7A U38C,0.1
15,G19U G29U,0.8
16,G5A U9A,0.35
17,A25C G27A,0.55
18,A12C C46G,0.05
19,U38A C45U,0.59
20,A16G C37U,0.04
21,G27U G40U,0.13
22,G21U U43A,0.08
23,C3U G33U,0.1
24,A24G A25G,0.75

row,Variant,self-cleavage
1,C13A G30C,0.14
2,G22A C46A,1.03
3,U20G C42A,0.1
4,G22A G44U,0.34
5,A26G G36U,0.12
6,C10U U38A,0.04
7,G30A U38G,0.03
8,G2C G40U,0.13
9,A14G U43C,0.06
10,G7U A39C,0.19
11,G30A U38A,0.72
12,A4G C18U,0.55
13,A4U U43C,0.03
14,G35U C45U,0.12
15,C31U G40C,0.03
16,G17A C23U,0.22
17,C8G C46G,0.11
18,C15G U28A,0.04
19,C23U G29A,1.11
20,G5U U32C,0.07
21,G30C G40A,0.13
22,C3G U32G,0.11
23,G2A U43C,0.13
24,A16G C45A,0.14

row,Variant,self-cleavage
1,G2C U34A,0.07
2,A26G G36A,0.28
3,C10U G44U,0.13
4,C8G G36A,0.18
5,G7C A16C,0.11
6,C3G G22C,0.26
7,G21U U32G,0.26
8,G1U G33U,0.06
9,C23U G44U,0.32
10,C31U C37A,0.09
11,G22C A25U,1.23
12,G22U G36C,0.1
13,G17A G30U,0.2
14,C10A G29C,0.04
15,A14G G44C,0.19
16,A12C G44C,0.05
17,A16G U28C,0.44
18,G22C G30A,0.76
19,C23A G27A,0.92
20,G29C U34A,0.28
21,C3G G30C,0.32
22,C13U A25C,0.13
23,G30C G33U,0.07
24,A24G U32A,0.14

row,Variant,self-cleavage
1,U20C G44A,0.12
2,C8U C15U,0.25
3,A11C G22C,0.04
4,C13U G27A,0.17
5,A6G C37A,0.05
6,C18A G44A,0.2
7,C3G C37G,0.13
8,G5U A6G,0.07
9,G33C U38C,0.04
10,A24G G36A,0.17
11,G21C G40U,0.15
12,A16C C31U,0.03
13,C18A A26U,0.69
14,A11G G36C,0.01
15,G7C C31U,0.05
16,G33C U43G,0.01
17,G5C A6U,0.06
18,G29A A41G,0.32
19,A25U G36U,0.07
20,C13U C18U,0.12
21,U20C G44C,0.09
22,G19U C37U,0.04
23,G1A C10G,0.18
24,G17C G35A,0.11

row,Variant,self-cleavage
1,C10U G17U,0.33
2,C13A A14G,0.08
3,C15U C18G,0.07
4,C15U G35U,0.13
5,G17U G44A,0.07
6,G19A A26G,0.98
7,C8U U32A,0.1
8,G5C G27U,0.09
9,C18U C31G,0.05
10,A11G A39C,0.04
11,C3G C42G,0.05
12,G33C U34C,0.03
13,G5C A14U,0.06
14,C15A C31U,0.04
15,G21U G44U,0.5
16,A11G U32G,0.03
17,A6G C23G,0.1
18,U9G G30U,0.1
19,G7A G30A,0.24
20,C3A C8A,0.85
21,G1C G7U,0.03
22,A6U C42U,0.42
23,A11G A12G,0.02
24,A4G G21U,0.68

row,Variant,self-cleavage
1,G7A G29A,0.09
2,A39G C45A,0.1
3,U20A C42A,0.11
4,A6U U28C,0.74
5,A14G U43A,0.05
6,U20G G27U,0.25
7,A6U G22U,0.79
8,G7C G27A,0.09
9,G17U G21U,0.36
10,G7A G19C,0.09
11,G17C U20C,0.66
12,G22A G40A,0.08
13,A11G C23A,0.04
14,C15A A41U,0.05
15,G5A A12U,0.09
16,C37G C42A,0.09
17,C13A G30A,0.08
18,A14U C42U,0.2
19,C37G C45A,0.03
20,C3A G27U,0.62
21,A4U C18A,0.07
22,A26C U34C,0.33
23,U20C C42A,0.04
24,G1C C42G,0.01

row,Variant,self-cleavage
1,U34G C37U,0.1
2,A25U C31G,0.1
3,A6C G29A,0.7
4,G27A A39U,0.59
5,A4G U38A,0.23
6,A12G U28A,0.04
7,C8G A25G,0.1
8,A26U G44U,0.41
9,A25G G33A,0.04
10,C15A G35U,0.08
11,U28G C42U,0.31
12,G40C U43G,0.41
13,C8G U32A,0.04
14,U34G G40C,0.07
15,U9A C13A,0.2
16,C15A G17C,0.04
17,A26C G35U,0.09
18,A14G G35C,0.05
19,C15A A25G,0.12
20,C18A U38A,0.49
21,C23A G27C,0.81
22,U34C A41C,0.05
23,G1C C23U,0.07
24,C3U C42A,0.09

row,Variant,self-cleavage
1,G40U G44C,0.16
2,C3U G17C,0.18
3,G19C G29C,0.54
4,A24U U43G,0.03
5,C23U G40C,0.12
6,A24G A41C,0.04
7,C10G G21U,0.14
8,G1U A26U,0.34
9,G2A G36U,0.19
10,G1A A12G,0.04
11,G2U G44C,0.09
12,U32C C37U,0.07
13,A14U C45U,0.36
14,G19C G40U,0.08
15,A11G G29A,0.04
16,A16U U38G,0.02
17,U32C U43C,0.05
18,A39U C45U,0.85
19,C13A G21C,0.14
20,A24U G35U,0.38
21,A14U C37G,0.05
22,G7A A41G,0.12
23,G33C C46A,0.03
24,G5C A6C,0.23

row,Variant,self-cleavage
1,C3G G17A,0.14
2,C8A U28C,0.25
3,G5U G7C,0.11
4,A16G A39C,0.12
5,C3G A41U,0.29
6,G5C A41G,0.07
7,G1C U43G,0.13
8,G1U C8G,0.06
9,A6U C31A,0.38
10,U9G C37A,0.22
11,G1C G40U,0.02
12,A16C G19C,0.4
13,A11U U20C,0.07
14,C15U A24U,0.32
15,G2A A11U,0.12
16,A14G C45A,0.38
17,C45U C46U,1.03
18,U34G U38A,0.3
19,A14C A16G,0.1
20,U9C A12U,0.03
21,A11U A26U,0.12
22,C10G C42U,0.03
23,G1A G21U,1.38
24,A4U A12U,0.12

row,Variant,self-cleavage
1,C15U G27C,0.87
2,G29A G33A,0.12
3,G22U U38G,0.04
4,G30C C46G,0.59
5,C13G C31G,0.05
6,G19C A26C,0.68
7,C10G C46U,0.06
8,C10A G44U,0.03
9,C18A A39U,0.76
10,G5C G36C,0.06
11,C3A A25G,0.29
12,U9C C15U,0.04
13,G2C U34G,0.12
14,U20C G36A,0.11
15,C8A C42A,0.29
16,A12C G27U,0.02
17,U9G G17U,0.08
18,C3U G29A,0.26
19,G2A C23A,1.04
20,G17A A39U,0.06
21,A6G A25G,0.07
22,G22C G29U,0.38

# — the RNAGym collection of RNA variant scans (doi:10.7554/elife.90254)
